US20220356230A1

What was measured:
Assay in all cases: Luminex bead assay, antibody supernatant on modified RBD.mmH microspheres
[1] = target: MOD10 - SARS-CoV-2 Spike Protein (RBD)(R319-F541).mmH (SARS-CoV-2)
[2] = target: MOD14 - SARS-CoV-2 Spike Protein (RBD)(R319-F541).mmH (SARS-CoV-2)
[3] = target: MOD12 - SARS-CoV-2 Spike Protein (RBD)(R319-F541).mmH (SARS-CoV-2)
[4] = target: MOD8 - SARS-CoV-2 Spike Protein (RBD)(R319-F541).mmH (SARS-CoV-2)
[5] = target: MOD13 - SARS-CoV-2 Spike Protein (RBD)(R319-F541).mmH (SARS-CoV-2)
[6] = target: MOD9 - SARS-CoV-2 Spike Protein (RBD)(R319-F541).mmH (SARS-CoV-2)
[7] = target: MOD15 - SARS-CoV-2 Spike Protein (RBD)(R319-F541).mmH (SARS-CoV-2)
[8] = target: MOD11 - SARS-CoV-2 Spike Protein (RBD)(R319-F541).mmH (SARS-CoV-2)

## mAb10936 (antibody)
[1]
  Binding signal (MFI): 28800 MFI
[2]
  Binding signal (MFI): 28500 MFI
[3]
  Binding signal (MFI): 31700 MFI
[4]
  Binding signal (MFI): 2920 MFI
[5]
  Binding signal (MFI): 29200 MFI
[6]
  Binding signal (MFI): 29100 MFI
[7]
  Binding signal (MFI): 21700 MFI
[8]
  Binding signal (MFI): 30800 MFI
